Among the data in a protein production outcome set (Wang et al. 2014) are protein production values, retold here.

The series is described as follows: label from the status in PepcDB records.

Take “MNKIQVLDPVTIDKIAAGEVIERPASVVKELVENAIDAGATAIVTEIEEGGISMIRIADNGCGMDASDVPNAFLRHSTSKIRTVEDLVHIGSLGFRGEALSSIAAVSQVEMITKTKDQVLGTRYRIAGGKEEELDETGARDGTTFLIRQLFYNTPARRKFLKTPMTEASHVGDLLTRMALSHPEISFQFINNGQSKLHTSGNGNLKDVIYHVYGREIAANLLAADYESPGLKIRGFLGKPLISRGNRNFENYFINGRYVKSSIISKAIEDAYKDFTMQHKYPFVVLHIEIDGEHVDVNVHPTKMELRFNNQQEVYNSIYAAVDHGLHAEELIPHVEVDAPKAAAPMKQEGGAPHAAQKKDNPVVPDRTTSVQPAPSAKKSVPAPEERTLDYFMQKMKERVAAYHAQQNQEAPKKAPDVKVSAQPSEDRREAPSDRVCETPEYAAQQLNLFEENLVERKVQAEYKIIGQVFETYWLVEFNDSLYIIDQHAAHERVLYEKTLKSMKTREFTSQFISPPIVLDLSMQEAELLNQYMDQFTRIGFEIEEFGQESYAVRAVPGNLFGIAKKDLLLQMLDGLSDEVSRNLSPDMIDEKVASMSCKAAVKGNMKLSATEVDSLIGELLTLENPYHCPHGRPTIIAMTKRELEKKFKRIV”: the protein production entry was “failed”.

Turning to “MNKKKDILVIGFALFSIFFGAGNLIFPPYIGLTSGGEWLISFLGFIISDVGIIFLSIVAVSKAGSFQGVVGRAGKKFGITLEILMMLCLGPILVVPRTAATTFEMSISPLLGNVNPYVFSVIFFLIVFVLTIKPNKVMDIIGKVLTPLLLISLAVLIIKGIINPIGDLENVNSGKLFMTGITQGYQTMDALGTGGIVALVMASFASKGYKDKKENRMLTIKSALIACIGLAIVYGGLTFLGATSSTLYDSSISQTTLLMNITNAILGSTGTIMLAIVIGLACLTTAVGLTSVTAKYFEDVSNKKLKYKYIVIAICVFSALSSNLGVDKIIEIAVPILSLIYPVSILLVVMSIFEKFVPNNVVVKGATYATLLISLLTVIDSLGIKFEFVHKLPLANLGFNWVVPAIVGGLIAGLVFRKREVVSLEESY”, the protein production result is “failed”.

On to “MNKLKYYCLRYQPYLLGVAFFLAIFLVWAIGRAFGFASLHSLLAGIGVFLLLSAGYVLLLYRGVGQHHNLEGLLRDDADQAVLSAAPADREEVSLLRERLLQGIERLHSNKPRGTSNKDALYALPWYLVIGQPAAGKSTMILQSGLNFPYAEREGVRVAGLGGTRNCDWFFSSEAVLLDTAGRYMNSPEEAGKWRGFLQLLRQHRQRRPLNGLIVSVSIADILHGSVEDQERVAKRLRERIQESCALLEVRLPIYLVFTKCDLIPGFTAFYRQLDDAARGEVMGKTFSHKGYEQADWGQRFSNAMDELTRYWGQMASQQLVQQDIQVTRRNDAAYRFPLELAALKPRLHQFVDSLLRANPYQNAEMLRGFYFTAALQADEAQWGCHGQHVAERFALEHAEGTGTAGSQPAPLFINSLFRKVIIPDQHLVALYTSNHRERRRKAGWVGAAGLAALVLCSLWGWSYLNNRATLASIADELAQAKADDQAASGQYTAWRSLDRLRFWAAHYHEQHHAKGVPLGMRLGLYQGHEVEPLLRDRYFATLQNVMLKPTADNLTRTLYLLTTLKVYQRNTRELQPVSGIDSVEAEALPHDNRAQSIANFGKAALDTYVMLSPGQREHADPAFLKAHLPDYWYPAIARQTGKSMAAAGSEAGGNQDYLYASRQITFYSDQIREPDVPRILDNAFLMSSSRNYIDSLRAQSLRAIETITLESDTLFAFGRADFQSLKNEGQHQLSAIASKLLNTPNIGKIIISGHADQLGDSQGNLQVSKQRAQTIRTYLVGKGVPAELVVAQGEGSRKPLVNCDMQQPRTQLIKCLEPNRRVEIEVRGLN”, for which the protein production result was “failed”.

Consider “MNKLYIGNLSPAVTADDLRQLFGDRKLPLAGQVLLKSGYAFVDYPDQNWAIRAIETLSGKVELHGKIMEVDYSVSKKLRS”, for which the protein production entry is “not failed”.

For “MNKMLYGWLLAACCGLPPAFAGDSVDVLAQPALHGPQALRAVLQDVARADARLVAVGERGVVLLSDDNGATWRQATAVPVGVSLTAVQFIDARNGWAVGHAGVVLHSQDGGEHWSVQLDGKRAAALEVQAAEAAADERRLAAAQRLLADGADKPLLALNFTDARNGLVVGAYGVAMRTDDGGRSWQSEIGRLPNGRGLHLYALARQGNQVYIAGEQGLLLRSRDGGEHYEALHGPYDGSYFAATVLPDGRLLLGGLRGSLFASDDGGDSFQALANPTPASINGLRVAGGQLLLANQAGMLLRSGLGAFAAQPVAVSDGLPLTAATTAADGSIVAVGMAGARRLEPSSLEHHHHHH”, the protein production entry is “failed”.

Regarding “MNKMNNNILKKNDLSSQEESTHEIQDVLDQLDFYTYKIALFLDIDGTLADFKIDPLACFISKKILKSIQDIQSKGCLVSVITGRDYNSAQKLLADVSLPIAALHGLDIHINEKTQLNAINQNNQIFIQNFLCRLKEEIKYQPDLSIENKHHSIALHYRKNPDLYDIAKHIMNTVKKDNDEFKVIEGKYVFELIPKNSNKGSAIKTLLSYFDAEHYLSIFIGDDITDEDGFNMVNQLEGISIKVGSGKTVARFRLKNIEHVEEFLNLLSHHFPDSSTQITKKYGEQHV”, the protein production entry is “failed”.

As to “MNKNLNTFTSMRNDRQLHLYLAWGCPFCHRILASLAITKLDDNISITWMENIKGEAGWKMYFIEDPLFNSDSLKAVYQQLEPTVEHRYSVPLLVDKKNNLLLSTSSPEIVRYVAKGFDDAFSVAYDLIPNKLIKDIDEMNQWLHDKINRAVYLVGFATQQSDYEYKLYELFKALDELEERLKKQLFLFGNQLTESDLYLLATLERFDNIYFCLFKCSLKRIADYPALFRYHNQLRGMESLASTYQPVLTKEHYFMSTMHVLGEARELNPSKIIPIDYYP”, the protein production entry is recorded as “failed”.

Consider “MNKQNKQNKFSPEVRERSVRLVQEHRGEYPSLWAAVESIAPKIGCVPSTLLEWVKRSEINNGAREGLTSSERDRLKALERENRELRRANEILKTASAFFAQAELDRVLKKLEHHHHHH”, for which the protein production entry is “not failed”.

Take “MNKRAREWVSVGITWVQDVIYVALGILLTLACAVLLLHGGVNLVGALGRDLDLQVIVQLLDRILLAMMIVELLYTVKVSFRDHLLVPEPFLLVALIAAIRRILVITAEFGAQAPSGDEQFRHVMSELGLLTVLILVLVGSVVILRRRDSAEAPR”: the protein production entry was “failed”.

Take “MNKRRNHKTNKAKDSLSDEETKHDVLAQEVEGGDSSSDEDDVNIVLEPSSTYYGGDTSTGDSKGLFVGGTTTRHWQRPGYSSTAEGGIVGSGVSAYSRGGVDLSLVPKPPTDFPGAHVDYSVFENEIDSLEEKPWREKGAELSDYFNYGFTEDTWREYCRRQQMMRLYSQSLMPIRTLDSGGPLHNIDSPNEPSRKVPRGQQNRRLTPAYSTLRNNFDSKFYSDGNESFSSDYVRYSRPEQTDGDDVILTLTKPTSVDES”: the protein production result is “failed”.

As for “MNKSTCLMAAETPSKRWRLHCLAFSQRFVRAGPACSSREACSSPRAGWNPAGFRLPGRWSPFVALHLVCQIREALKLRSGHRTPSGAGSSMQPPPSLCGRALVALVLACGLSRIWGEERGFPPDRATPLLQTAEIMTPPTKTLWPKGSNASLARSLAPAEVPKGDRTAGSPPRTISPPPCQGPIEIKETFKYINTVVSCLVFVLGIIGNSTLLRIIYKNKCMRNGPNILIASLALGDLLHIVIDIPINVYKLLAEDWPFGAEMCKLVPFIQKASVGITVLSLCALSIDRYRAVASWSRIKGIGVPKWTAVEIVLIWVVSVVLAVPEAIGFDIITMDYKGSYLRICLLHPVQKTAFMQFYKTAKDWWLFSFYFCLPLAITAFFYTLMTCEMLRKKSGMQIALNDHLKQRREVAKTVFCLVLVFALCWLPLHLSRILKLTLYNQNDPNRCELLSFLLVLDYIGINMASLNSCINPIALYLVSKRFKNCFKSCLCCWCQSFEEKQSLEEKQSCLKFKANDHGYDNFRSSNKYSSS”, the protein production entry is “failed”.

As to “MNKVQSIDPLIADKFNNELRSYNLEYKLEQESLNKEIDEALKNYASKNGGLGGNRPDVKLLLNTQDPNRRVPILIEYKGLKDKLIKLDKNKLVENFKNHEPHYKNIREYALNGALHYANAILHHTSYTECIAIGITGYKDNKGGICSQIAVYYVNKSNLGMGIDVSKGEQGYSDLSFLSRKHFNDFIKRVDTLSLSDEDLERIREKKNQEIEDCLMRLNNNIYNKEKNFLSEHNRVYLVIASIIANLGIPNLVTPLNKEDLKSSDEVHQRDGDIMLRKIQSFLENKDLSPEKRQSIISSLETLLRNENNNKATNGESCLKRCFSEIVDSLGIYYKIGLSTDFTGKLFNEMYRWLGFTKDQLNDVVLTPPYVATLLARLSKVNKDSFVWDFATGSAGLLVASMNLMIEDAKKRITSPEELEQKIAHIKAKQLLGIEILSDIHTLAVLNMILMGDGSSQILNQDGLSGFDGKVNNEAFKANAFVLNPPYSASGNGMVFVEQALEKMQSGYASVIIQSSAGSGKAKEYNVRILEKHTLLASIKMPLDLFIGKSSVQTHIYVFRVNEKHDAKQRVKFINFSNDGYARANRKKAKASHNLKDTHNAKERYNEVVDLVHIGQSCLKFLSEDDYYENTIDPKNGSDWNQNKPTDTKPELEDFKRTIADYLSYEVSLILKNQMPPKR”, the protein production entry is recorded as “failed”.

For “MNKWLDLILKIHVHPFLWIIAALGLLTGHMKALLCLLLIVLIHELGHAALAVFFSWRIKRVFLLPFGGTVEVEEHGNRPLKEEFAVIIAGPLQHIWLQFAAWMLAEVSVIHQHTFELFTFYNLSILFVNLLPIWPLDGGKLLFLLFSKQLPFQKAHRLNLKTSLCFCLLLGCWVLFVIPLQISAWVLFVFLAVSLFEEYRQRHYIHVRFLLERYYGKNRELEKLLPLTVKAEDKVYHVMAEFKRGCKHPIIIEKSGQKLSQLDENEVLHAYFADKRTNSSMEELLLPY”, the protein production result was “failed”.

“MNLEKHASPDSVIVIDDLLPQHMDYASRQRNTTIWTGDVYRLVPILRHYRPDLDIRVYDVDMKGFGLVTRLDPSSDVLAGNYGAIEADILAGKWSFPTAAAIRDHMQPRATDLLANDLGIIAARRTAKASKQSDRRAAPALPQRRPRLSVIICAYDMAREAPRTILSATAPYQKGLKEDEYEVIVVDNGSSTPLTYDNLPPNAQIVRAPDPRQSPVFALNWAAREIAKGEILLFAIDGARIFSERLIDETVKAHDRMEDAFVFSLSWHIGPKVQMQSVPEGYGAEIEDGLIRAVRWPDESDGLFGISVLAGSSSNGFFGDITESNSFSISRTLFDRHGGFDERFTSPGGGLANLEIFRRYVTRPDARNVCLLSEGTFHQVHDSVATSGKNRWEAFASEYEAIFGGPYLRPSYHCFYQGKPRAGMVPFILQSLQG”: the protein production entry was “failed”.

Consider “MNLHQTVEHEAAAAFAAAGIAGSPVVLQPTKNAEHGDFQINGVMGAAKKAKQNPRELAQKVADALAGNAVIESAEVAGPGFINLRLRHEFLAQNIHAALNDARF”, for which the protein production result is listed as “not failed”.

In the case of “MNLKAMDAILEDCCDIVCSDYLPSAMIKSMCIVAERINNLNKAVSLFTSNPAKAVGIYDERGSIKENKKADLVLVDIDSEYPKVVNTIVNGKTVYKRELEHHHHHH”, the protein production result is “failed”.

For the sequence “MNLLLIVVFGAILEIAVWIGIAQFISGWYVFFWFIIAFFIGLSMLRSSTSSIMPQLQQMQMSGQMGNDPAVTKKLAVAMAGFLLMLPGVVSDILALLILIPGVQTLFRNALMKTLAKRQQAMMNKMMGGMMGGDVGGNAGQNPFEDLMRQMQNMQNQQGASPYNDSNVIDGEAREVKPDQKQIEHKDK”, the protein production result is reported as “failed”.

Regarding “MNLLYMVLIGQIILFLIGAMYAIGQTKKTRNNMPLPLAVRLILSFSLTASAIWIWLQDPSVDYSTWVALGMTLSTVGDLFMAGLIPIGHRLIGGMITFALAHCFYVKAFLQTGISWNGFWIGLLVYGLFLIIGWFFFIRNEKQDKLFTIGALIYGLWVGGMACFAFALYYENTGIWWIPAFGGLLFVISDFIIGVTDIGGRKLKYEPLWIWFTYVAAQMCIVYVGI”, the protein production result was “failed”.

Take “MNLPKVKMLQVSKCLIGLAVMMLQSCDVADNRRDMLCGNWESVEGKPDVLIYKEGEAYKVTVFRRSGLRRKLKPETYLLQEENGNLFMNTGFRIDVSYNEATDVLTFSPNGDYVRVKPQPGHPTEE”: the protein production entry is recorded as “failed”.
